Assay [1] concerns the target T1, human antithrombin (human, UniProt P01008 33-464). In words: cell-based or functional assay.
The target of assay [2] is T1, human antithrombin. In words: cell-based or functional assay. This is another data set of the same source.
In assay [3] the target is T1, human antithrombin. In words: BLI (Octet-QK), sdAb coupled to sensor, antithrombin 12.5-50 ug/ml; apparent KD. Here is the method:
The interaction between sdAbs KB-AT-001, KB-AT-002, KB-AT-003 and KB-AT-006 versus human antithrombin was further analyzed via biolayer-interferometry analysis using Octet-QK equipment in order to determine apparent dissociation constants (KD,app). To this end, sdAbs KB-AT-001, KB-AT-002, KB-AT-003 and KB-AT-006 were diluted in 0.1 M Mes (pH 5.0) to a concentration of 200 microgram/ml for coupling to EDC/NHS-activated amine-reactive biosensors (Fort6bio, Menlo Park, Calif., USA). Sensors were rehydrated in 0.2 ml 0.1 M MES, pH 5.0 for 300 sec. Sensors were then activated via incubation with 0.1 ml 0.2 M EDC/0.095 M NHS mixture for 300 sec and subsequently incubated with 0.1 ml sdAb-solution for 600 sec. […] Following this association phase, sensors were transferred to wells containing PBS-T and incubated for 900 sec, allowing dissociation of the antithrombin-sdAb complex. Obtained data were subsequently analyzed using Octet-QK data analysis software (Origin vs 4) to estimate KD,app.

Assay [4] concerns the target T2, rabbit antithrombin (rabbit).
T2 construct: Native protein in plasma diluted 1/4; also called rabbit AT; antithrombin in rabbit plasma
In words: ELISA, sdAb coated, plasma 1/4, bound antithrombin probed with polyclonal anti-antithrombin; grade by OD. As to the method:
(§1) sdAbs KB-AT-001, -002. -003, -004, -005, -006, and -007 were immobilized (10 microgram/ml) in 10 mM NaHCO₃, 50 mM Na2CO3 (pH 9.5) in a volume of 50 microliter in half-well microtiter plates (Greiner Bio-One, Les Ulis, France) for 16 h at 4° C. As a positive control, polyclonal anti-antithrombin antibodies (MATIII-EIA kit, Affinity biologicals, Ancaster Canada) were immobilized in a similar fashion. As a negative control, the anti-von Willebrand sdAb KB-VWF-006 was immobilized. After washing the wells three times with 100 microliter/well using Tris-buffered saline (pH 7.6) supplemented with 0.1% Tween-20 (TBS-T), wells were blocked with 100 microliter/well of TBS-T supplemented with 3% bovine serum albumin (BSA) for 30 min at 37° C. Wells were washed as described above, and subsequently the following plasma preparations (diluted ¼ in TBS-T/3% BSA, 100 microliter per well, 2 hours at 37° C.) were added to each of the immobilized sdAbs and both types of control wells: rabbit plasma, canine plasma, simian plasma, bovine plasma, porcine plasma, rat plasma, murine plasma and human plasma.
(§2) Wells were then washed three times with 100 microliter/well using TBS-T. Bound antithrombin was probed with peroxidase-labeled polyclonal anti-antithrombin antibodies (MATIII-EIA kit, Affinity biologicals, Ancaster Canada; diluted 1/100) for 2 hours at 37° C. with 50 microliter per well. Wells were then washed three times with 100 microliter/well using TBS-T. Residual peroxidase activity was detected by measuring peroxidase-mediated hydrolysis of 3,3′,5,5′-tetramethylbenzidine.
(§3) Negative binding (−) was defined as optical density (OD) being ≤0.1, moderate positive binding (+) was defined as OD being >0.1 and <0.5, strongly positive binding (++) was defined as OD being ≥0.5. […] All plasma preparations had moderate or strongly positive binding to the positive control (polyclonal anti-antithrombin antibodies).
On the technique in general: ELISA stands for enzyme-linked immunosorbent assay.

The target of assay [5] is T3, canine antithrombin (canine).
T3 construct: Native protein in plasma diluted 1/4; also called canine AT; antithrombin in canine plasma
Described as above. Here is the method: as §1, §2, §3

In assay [6] the target is T4, simian antithrombin (simian).
T4 construct: Native protein in plasma diluted 1/4; also called simian AT; antithrombin in simian plasma
The assay is described as above. As to the method: as §1, §2, §3

Assay [7] has as its target T5, bovine antithrombin (bovine, UniProt P41361 33-465).
T5 construct: Native protein in plasma diluted 1/4; also called bovine AT; antithrombin in bovine plasma
The description is as above. As to the method: as §1, §2, §3

For assay [8], the target named is T6, porcine antithrombin (porcine).
T6 construct: Native protein in plasma diluted 1/4; also called porcine AT; antithrombin in porcine plasma
Described as above. As to the method: as §1, §2, §3

Assay [9] has as its target T7, rat antithrombin (rat, UniProt Q8VHJ4).
T7 construct: Native protein in plasma diluted 1/4; also called rat AT; antithrombin in rat plasma
The assay is described as above. As to the method:
as §1, §2, §3

The target of assay [10] is T1, human antithrombin. Described as above. As to the method: as §1, §2, §3
The target in assay [11] is T8, murine antithrombin (mouse, UniProt P32261 33-465).
T8 construct: also called mouse antithrombin; murine AT
The assay is described as above. Here is the method: as §1, §2, §3

Assay [12] has as its target T1, human antithrombin. In words: ELISA: sdAb coated on the plate, antithrombin added in solution; the concentration is that of antithrombin. As to the method:
(§4) sdAbs recognizing antithrombin (KB-AT-001, -002, -003, -004, -005, -006, and -007) were immobilized (5 microgram/ml) in 10 mM NaHCO₃, 50 mM Na2CO3 (pH 9.5) in a volume of 50 microliter in half-well microtiter plates (Greiner Bio-One, Les Ulis, France) for 16 h at 4° C. After washing the wells three times with 100 microliter/well using Tris-buffered saline (pH 7.6) supplemented with 0.1% Tween-20 (TBS-T), wells were blocked with 100 microliter/well of TBS-T supplemented with 5% skimmed milk for 30 min at 37° C. Wells were washed as described above, and subsequently different concentrations of purified human antithrombin or murine antithrombin (0-5 micromolar diluted in Tris-buffered saline (pH 7.6) supplemented with 5% skimmed milk; 50 microliter/well) were added to each of the immobilized sdAbs and incubated for 2 hours. Wells were then washed three times with 100 microliter/well using TBS-T. Bound antithrombin was probed with peroxidase-labeled polyclonal rabbit anti-antithrombin antibodies (Diagnostica Stago, Asnièrs-sur-Seine, France; Dilution 1/100) for 1 hour at 37° C. with 50 microliter per well. Wells were then washed three times with 100 microliter/well using TBS-T. Residual peroxidase activity was detected by measuring peroxidase-mediated hydrolysis of 3,3′,5,5′-tetramethylbenzidine. OD-values were plotted against antithrombin concentrations (FIG. 1).

Assay [13] deals with T8, murine antithrombin. The description is as above. As to the method: as §4

The record followed here is patent US20190100602A1 (INSERM INSTITUT NATIONAL DE LA SANT ET DE LA RECHERCHE M …, published 2019).

T1 sequence (P01008 33-464 limits assumed): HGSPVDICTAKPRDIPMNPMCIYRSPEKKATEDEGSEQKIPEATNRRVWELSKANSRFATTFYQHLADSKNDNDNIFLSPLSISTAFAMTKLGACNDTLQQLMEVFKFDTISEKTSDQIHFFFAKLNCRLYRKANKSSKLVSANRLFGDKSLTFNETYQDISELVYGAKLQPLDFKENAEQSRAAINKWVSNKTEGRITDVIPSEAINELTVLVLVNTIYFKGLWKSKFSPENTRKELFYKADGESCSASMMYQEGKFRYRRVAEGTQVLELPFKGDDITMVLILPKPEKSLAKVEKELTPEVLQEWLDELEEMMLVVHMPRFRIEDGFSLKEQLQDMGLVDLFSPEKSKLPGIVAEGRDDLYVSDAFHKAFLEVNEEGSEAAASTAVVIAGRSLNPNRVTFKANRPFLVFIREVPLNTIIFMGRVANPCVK
T8 sequence (P32261 33-465 limits assumed): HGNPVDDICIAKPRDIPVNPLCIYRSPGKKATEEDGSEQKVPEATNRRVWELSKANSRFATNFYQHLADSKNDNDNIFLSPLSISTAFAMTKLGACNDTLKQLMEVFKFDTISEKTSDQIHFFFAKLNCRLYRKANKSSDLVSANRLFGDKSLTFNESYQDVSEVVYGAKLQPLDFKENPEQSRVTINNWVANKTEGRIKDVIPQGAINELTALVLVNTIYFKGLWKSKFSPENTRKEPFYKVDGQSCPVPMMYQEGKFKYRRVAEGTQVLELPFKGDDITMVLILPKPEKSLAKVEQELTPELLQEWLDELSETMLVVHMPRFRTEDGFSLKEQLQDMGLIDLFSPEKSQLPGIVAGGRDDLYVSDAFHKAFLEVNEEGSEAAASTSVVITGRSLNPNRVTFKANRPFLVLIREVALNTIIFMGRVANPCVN
T5 sequence (P41361 33-465): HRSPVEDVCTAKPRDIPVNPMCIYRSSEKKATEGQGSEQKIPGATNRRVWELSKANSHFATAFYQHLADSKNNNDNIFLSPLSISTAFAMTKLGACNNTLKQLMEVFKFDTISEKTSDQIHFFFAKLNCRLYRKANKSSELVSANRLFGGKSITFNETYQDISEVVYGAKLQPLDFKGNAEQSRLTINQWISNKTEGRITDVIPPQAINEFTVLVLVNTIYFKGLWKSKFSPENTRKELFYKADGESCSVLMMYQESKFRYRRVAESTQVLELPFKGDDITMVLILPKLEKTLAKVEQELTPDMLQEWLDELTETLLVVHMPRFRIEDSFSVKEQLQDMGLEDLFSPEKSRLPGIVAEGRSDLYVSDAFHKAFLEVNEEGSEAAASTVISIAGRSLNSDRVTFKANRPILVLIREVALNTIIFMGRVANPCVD

B1: KB-AT-002 (VHH)
VHH: QVQLVQSGGGLVQAGGSLRLSCAASGRTFNNNGMGWFRQAPGKEREFVAAISWSGGSTYYADSVKGRYIMSRDNAKNTVYLQMNSLKPEDTAVYYCAARTRYNSGLFSRNYDYWGQGTQVTVSS
notes: Monovalent anti-antithrombin single-domain antibody; also called sdAb KB-AT-002
As a reminder, the EC50 (read off the curve) is the concentration at which the effect is half-maximal. A low value points to higher potency in that assay. In the case of B1, the “percentage of neutralization of antithrombin-mediated factor Xa inhibition, with LMW-heparin” value in assay [1] is below 15%. The “percentage of neutralization of antithrombin-mediated thrombin inhibition, with unfractionated heparin” value in assay [1] was below 5%. Besides, the “% antithrombin neutralization (thrombin amidolytic activity on S-2238, no heparin)” value in assay [2] came to 65%. In addition, the Kd in [3] was found to be 4 nM. Further, the OD in assay [4], in [5], in assay [6], in [7], in assay [8] and in [9] was at least 0.5 od each time. In addition, the OD in assay [10] and in assay [11] was at least 0.5 od in each case. Also, the “EC50 (read off the curve)” value in assay [12] is around 600 nM; in assay [13], around 500 nM.
